Patent US20240368617A1, “NPR1 VARIANT TO ENHANCE PLANT RESISTANCE TO BIOTIC AND ABIOTIC STRESSES AND METHOD THEREOF” (Duke University, published 2024)

Columns and labels:
[1] = molecular target: the molecule itself; assay: hydrogen peroxide-induced oligomerization, non-reducing SDS-PAGE
Procedure: WT NPR1 BTB/BHB (Thr39-Lys262) and the npr1(C156A), npr1 (C82A) and npr1(C212V/C216A/C223L) mutants were cloned into the pTrcHis vector (Thermo Fisher Scientific) as His10-MBP fusion proteins with a PreScission protease site following MBP and a C-terminal Strep tag. The proteins were expressed and purified similarly to the NPR1 (²SBD) as described above. The NPR1 BTB/BHB WT and mutant proteins at a concentration of 25 μM were incubated with 1 mM hydrogen peroxide in a buffer containing 125 mM HEPES and 150 mM NaCl at pH 8.0 at room temperature for 45 min. The oxidized samples were incubated with 50 mM iodoacetamide for 5 min, mixed with 4× SDS loading dye and analyzed using SDS-PAGE in the absence of any reducing reagent.

[2] = molecular target: the molecule itself; assay: cryo-EM of the NPR1-TGA3 complex; self-association
[3] = molecular target: T1, Full-length Arabidopsis NPR1 with C-terminal Strep tag, expressed in E. coli (NPR1-Strep3) (Arabidopsis thaliana, UniProt P93002 1-593); assay: cryo-EM of BS3 cross-linked NPR1-TGA3-LS7 DNA complex
T1 construct: Full-length NPR1; Homodimer; Purified with 0.2 mM salicylic acid; also called WT NPR1; not shown: C-terminal Strep tag (Strep3) with its last Lys mutated to Arg
T1 sequence: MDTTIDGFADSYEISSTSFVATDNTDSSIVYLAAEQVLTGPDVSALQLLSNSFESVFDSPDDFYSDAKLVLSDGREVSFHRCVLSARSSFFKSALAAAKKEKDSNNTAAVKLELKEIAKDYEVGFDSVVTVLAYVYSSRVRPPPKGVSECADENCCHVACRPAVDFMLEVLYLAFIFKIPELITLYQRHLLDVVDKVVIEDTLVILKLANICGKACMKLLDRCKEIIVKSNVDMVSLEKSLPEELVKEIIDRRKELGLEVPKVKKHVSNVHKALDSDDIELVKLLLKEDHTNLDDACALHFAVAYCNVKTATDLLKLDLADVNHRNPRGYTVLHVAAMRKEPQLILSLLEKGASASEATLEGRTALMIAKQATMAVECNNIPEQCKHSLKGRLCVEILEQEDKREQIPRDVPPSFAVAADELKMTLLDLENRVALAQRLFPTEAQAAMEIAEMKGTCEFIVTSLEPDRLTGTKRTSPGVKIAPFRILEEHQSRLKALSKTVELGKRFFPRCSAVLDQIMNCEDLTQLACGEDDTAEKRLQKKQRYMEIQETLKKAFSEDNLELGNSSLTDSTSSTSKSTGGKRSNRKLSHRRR
Procedure: 2. NPR1 TGA3 LS7-DNA cryo-EM sample preparation. The purified NPR1-Strep3 (20 μM), TGA3-Flag-HA (48 μM) and the LS7 DNA containing a palindromic TGA-binding site (underlined in 5′-[…]-3′, 57.6 μM) were mixed and incubated at 4° C. for 30 min. The protein-DNA complex was cross-linked with 1.5 mM BS3 (Thermo Fisher Scientific) at room temperature for 30 min and quenched with 50 mM Tris (pH 8.0). The protein-DNA mixture was further purified using a Strep-Tactin column (Qiagen) and size-exclusion chromatography (Superose 6 in-crease 10/300 GL, Cytiva) in a buffer containing 25 mM HEPES (pH 7.5), 150 mM NaCl, 2 mM DTT and 0.2 mM SA.
3. Cryo-EM sample preparation and data collection. Cryo-EM grids containing the NPR1-TGA3-LS7-DNA complex were prepared using the Leica EM GP2 Automatic Plunge Freezer at 4° C. and 85% humidity. The UltrAuFoil R1.2/1.3 300-mesh grids (Quantifoil) were glow-discharged using the PELCO easiGlow Glow Discharge Cleaning System (Ted Pella). A 3 μl sample of NPR1-TGA3-LS7-DNA (˜1.3 mg/ml) was applied to the grid, incubated for 60 s in the chamber and blotted for 2.4 s with Whatman No. 1 filter paper (Whatman International) to re-move excess sample, and then plunge-frozen into liquid ethane cooled by liquid nitrogen. […]

[4] = molecular target: the molecule itself; assay: X-ray crystal structure of NPR1(deltaSBD); tetramer in the crystal
Procedure: 5. X-ray crystallography studies of NPR1 (ΔSBD)) and the TGA3 NID. Arabidopsis NPR1 (²SBD) (Thr39-Asp410) was cloned into the pTrcHis vector (Thermo Fisher Scientific) as a His10-MBP fusion protein containing a PreScission protease site following MBP and a C-terminal Strep tag. Expression and purification of NPR1 (²SBD) was performed using similar procedures to those described above for E. coli-expressed NPR1, except that the size-exclusion chromatography buffer contained 20 mM HEPES (pH 7.5), 150 mM NaCl and 1 mM TCEP. Protein crystals were grown using the sitting-drop vapor diffusion method at 20° C. Each drop was prepared by mixing 1 μl of the protein solution at 6 mg ml-1 with 1 μl of the reservoir solution containing 0.1 M HEPES (pH 7.5), 19% PEG 3350, 0.25 m tri-sodium citrate. Diffraction-quality protein crystals were collected after 1 week and cryoprotected with the reservoir solution containing 25% glycerol.

[5] = molecular target: the molecule itself; assay: X-ray crystal structure, 1.5 A; self-association
Procedure: The Arabidopsis TGA3 NID (Ala160-Thr384) was cloned into the pTrcHis vector (Thermo Fisher Scientific) as a His10-MBP fusion protein containing a PreScission protease site following MBP and a C-terminal tandem Flag-HA tag. The purification procedure was per-formed similarly to that of Arabidopsis TGA3 (Asn87-Thr384) except that the size-exclusion chromatography buffer contained 20 mM HEPES (pH 7.5), 150 mM NaCl and 1 mM TCEP. Protein crystals were grown using the sitting-drop vapor diffusion method at 20° C. Each drop contained 1 μl of the protein solution mixed with 1 μl of the reservoir solution (0.1 m sodium acetate at pH 5.0, 20% (v/v) MPD). Diffraction quality protein crystals were collected after 1 week and cryoprotected with the reservoir solution also containing 25% glycerol.

TGA3 (Asn87-Thr384) = molecular target: T2, TGA3 (Asn87-Thr384) (Arabidopsis thaliana, UniProt Q39234 Q39234:87-384); assay: EMSA; conditions: tags: His10-MBP (PreScission site) N-terminal, C-terminal tandem Flag-HA; AT1G22070; E. coli; label: 6-FAM
T2 sequence: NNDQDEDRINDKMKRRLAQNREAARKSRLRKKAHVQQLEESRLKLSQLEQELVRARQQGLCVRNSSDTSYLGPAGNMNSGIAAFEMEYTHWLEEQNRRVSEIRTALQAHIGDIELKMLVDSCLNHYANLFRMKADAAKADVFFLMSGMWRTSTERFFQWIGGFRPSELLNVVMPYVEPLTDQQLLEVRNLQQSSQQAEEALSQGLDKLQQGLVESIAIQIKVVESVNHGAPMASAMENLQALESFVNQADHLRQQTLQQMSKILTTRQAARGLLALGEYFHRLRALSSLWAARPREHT
Procedure: The npr1(dim) mutant (L49D/F53D/V56D/V83K) was cloned into the pTrcHis vector (Thermo Fisher Scientific) as a His10-MBP fusion protein containing a PreScission protease site following MBP and a C-terminal Strep tag, and was expressed and purified similarly to the WT NPR 1 protein. Purified TGA3 (Asn87-Thr384) at a concentration of 0.6 μM and WT NPR1 or the npr1(dim) mutant at a concentration of 8 μM were used in the EMSA with the 6-fluorescein (6-FAM)-labelled oligonucleotide probes (200 nM) containing the LS5 and LS7 as-I cis-elements of the SA-responsive PRI gene promoter (LS5/LS7, 6-FAM-C-ggg[…]ggg) or DNA sequences with the two as-1 regions replaced with adenosines (LS5/LS7, 6-FAM-C-ggg[…]ggg), with the LS7 as-1 element replaced with adenosines (LS5/LS7, 6-FAM-C-ggg[…]-GAggg) or with the LS5 as-1 element replaced with adenosines (LS5/LS7, 6-FAM-C-ggg[…]ggg) as well as their complementary oligonucleotides (Integrated DNA Technologies). The uppercase bases indicate the LS5/LS7 sequence; the lowercase bases indicate overhangs outside the LS5/LS7 sequence; and bases replaced with adenosines are indicated with A's in the small capital font. Pairs of complementary DNA strands were annealed before the binding reaction. For each binding reaction, the desired protein combination was mixed with the target DNA probe together with 30 ng/μL of poly (dI-dC) (non-specific competitor, Thermo Fisher Scientific) in a binding buffer containing 20 mM HEPES (pH 8.0), 300 mM NaCl, 10% glycerol, 1 mM DTT and 0.2 mM SA. […] After electrophoresis, the gel was scanned with the Typhoon FLA 7000 imager (GE Healthcare).

B1: WT NPR1 BTB/BHB (Thr39-Lys262) with C-terminal Strep tag (other)
chain: TGPDVSALQLLSNSFESVFDSPDDFYSDAKLVLSDGREVSFHRCVLSARSSFFKSALAAAKKEKDSNNTAAVKLELKEIAKDYEVGFDSVVTVLAYVYSSRVRPPPKGVSECADENCCHVACRPAVDFMLEVLYLAFIFKIPELITLYQRHLLDVVDKVVIEDTLVILKLANICGKACMKLLDRCKEIIVKSNVDMVSLEKSLPEELVKEIIDRRKELGLEVPK
notes: E. coli expressed, His10-MBP fusion with PreScission site, purified as NPR1(deltaSBD); Used in hydrogen peroxide oxidation assay; also called NPR1 BTB-BHB domain; NPR1 (residues Thr39-Lys262); not shown: C-terminal Strep tag
binding result [1]: binds

B2: Arabidopsis TGA3 (Asn87-Thr384) with C-terminal tandem Flag-HA tag (other, Arabidopsis thaliana, UniProt Q39234 87-384, looked up)
chain: NNDQDEDRINDKMKRRLAQNREAARKSRLRKKAHVQQLEESRLKLSQLEQELVRARQQGLCVRNSSDTSYLGPAGNMNSGIAAFEMEYTHWLEEQNRRVSEIRTALQAHIGDIELKMLVDSCLNHYANLFRMKADAAKADVFFLMSGMWRTSTERFFQWIGGFRPSELLNVVMPYVEPLTDQQLLEVRNLQQSSQQAEEALSQGLDKLQQGLVESIAIQIKVVESVNHGAPMASAMENLQALESFVNQADHLRQQTLQQMSKILTTRQAARGLLALGEYFHRLRALSSLWAARPREHT
notes: range 87-384; E. coli expressed; His10-MBP removed with PreScission protease; two dimers per NPR1 dimer in the full complex; also called TGA3-Flag-HA; not shown: C-terminal tandem Flag-HA tag
binding result [2]: binds | binding result [3]: binds

B3: Arabidopsis NPR1(deltaSBD) (Thr39-Asp410) with C-terminal Strep tag (other)
chain: TGPDVSALQLLSNSFESVFDSPDDFYSDAKLVLSDGREVSFHRCVLSARSSFFKSALAAAKKEKDSNNTAAVKLELKEIAKDYEVGFDSVVTVLAYVYSSRVRPPPKGVSECADENCCHVACRPAVDFMLEVLYLAFIFKIPELITLYQRHLLDVVDKVVIEDTLVILKLANICGKACMKLLDRCKEIIVKSNVDMVSLEKSLPEELVKEIIDRRKELGLEVPKVKKHVSNVHKALDSDDIELVKLLLKEDHTNLDDACALHFAVAYCNVKTATDLLKLDLADVNHRNPRGYTVLHVAAMRKEPQLILSLLEKGASASEATLEGRTALMIAKQATMAVECNNIPEQCKHSLKGRLCVEILEQEDKREQIPRD
notes: E. coli expressed, His10-MBP removed; Crystal structure PDB 7MK3; two dimers stack to a tetramer in the crystal; also called NPR1 (ASBD); NPR1 (^2SBD); not shown: C-terminal Strep tag
binding result [4]: binds

B4: Arabidopsis TGA3 NID (Ala160-Thr384) with C-terminal tandem Flag-HA tag (other, Arabidopsis thaliana, UniProt Q39234 160-384, looked up)
chain: AGNMNSGIAAFEMEYTHWLEEQNRRVSEIRTALQAHIGDIELKMLVDSCLNHYANLFRMKADAAKADVFFLMSGMWRTSTERFFQWIGGFRPSELLNVVMPYVEPLTDQQLLEVRNLQQSSQQAEEALSQGLDKLQQGLVESIAIQIKVVESVNHGAPMASAMENLQALESFVNQADHLRQQTLQQMSKILTTRQAARGLLALGEYFHRLRALSSLWAARPREHT
notes: range 160-384; Crystallised as a dimer with palmitate (PDB 7TAE); not shown: C-terminal tandem Flag-HA tag
binding result [5]: binds

B5: PR1 promoter LS5-/LS7- (both as-1 replaced) (dsDNA)
DNA 1: GGGCTAAAAAAAAAGTAAAATAGAAAAAAAAAGAGGG
DNA 2: CCCTCTTTTTTTTTCTATTTTACTTTTTTTTTAGCCC
binding result (TGA3 (Asn87-Thr384)): no binding
